Like-named read-outs stand apart in the source and are kept apart here.
What was measured:
[1] = target: high-affinity receptor for bFGF on bovine capillary endothelial (BCE) cells (bovine (endogenous in BCE cells)); test: radioligand binding
[2] = target: high-affinity receptor for bFGF on bovine capillary endothelial (BCE) cells (bovine (endogenous in BCE cells)); test: radioligand binding; remark: listed apart in the source

In the case of “125I-labeled basic fibroblast growth factor (125I-bFGF) (from UniProt P09038 1-288) (ligand)”, the fmol bFGF bound to high affinity sites [1] is reported as 2.6 fmol and the fmol bFGF bound to high affinity sites [2] is reported as 3.1 fmol.
